# Measured values as given in the DeepSol protein solubility set.
# Experiment: soluble on expression in E. coli; label from the status in PepcDB or PDB records
row,Sequence,soluble on expression in E. coli
1,MGVPMGNGDCGAEFKCPPNFHKSNRVNGVWCIKVYPGNMTWWEAERECRCTIKGGHLSGIESNSEKRYVEEQTLSILDDKNIKNGAVWLGAYRRKECPSGKVSSDSICHDEKTFQFTDQHTCKTLIFQDWAANQPTNNAGDDCAVLLASTEASGSNSEASGKAAVKNCLHVQGTTPILSSVGFVCGVKAAQEGGNYGGYGGGDFMVIGAAKPKH,not soluble
2,MGVSLSKGGNVSLTKEAPGLTAVIVGLGWDIRTTTGTDFDLDASALLLNSGGKVASDAHFIFFNNLKSPDGSVEHTGDNITGEGEGDDEQIKINLATVPADIEKIVFPVSIYDAENRQQSFGQVRNAFIRVVNQAGEAEIARYDLSEDASTETAMVFGELYRHGAEWKFRAIGQGYASGLRGIAQDFGVNV,soluble
3,MGVTLAKGGNVSLSKEAPGLTAVTVGLGWDVRTTTGAAYDLDASALLCSGSGRVVSDLHFVFYNNLTSPDGSVQHTGDNLTGEGEGDDESINVELAQVPAEVTKIVFPVSIHEAQSRGQSFGQVSNAFIRVVNRANNVELARYDLSEDASTETAMVFGELYRHGGEWKFRAVGQGYASGLAGIASDYGVNV,not soluble
4,MGWQTLKQQSVPARKRLLYLHIPFCATHCTFCGFYQNKLRDDSTATYTRYLLQELAMEADSPLHQSAPIHAVYFGGGTPTALAADELSQIIRAIRTSLPLAPDCEITVEGRAMDFDDERIDACLDAGANRFSIGIQTFDTRIRQRMARTSDKQQSIRFLERLCGRDRAAVVCDLMFGLPGQTPEIWREDLAIVSDLPLDGVDLYALNLLPTTPLAKAAENQRVALPDVVARRDFYRTGAAFLADSGWHQLSNSHWARTTRERNLYNLLIKQGADCLAMGSGAGGNINGQAYMMERSLERYYQQIDQGQKPIMMMTPASSTGPWQHQLQAGIEVGRIKLPQLTQHARELQPLLSQWHQAGLTCDDSTCLRLTNDGRFWANNLMQALQQIIPQLNAEEHAHLEHHHHHH,not soluble
5,MGYCIIIPAYNAARTLPAVVREVLGLGMPCLVVDDGSTDGTSATVEGLGVHLLRHDGNRGKGAALRTGFEWALAHGYSGVVTLDADGQHDPTAIPLLAATARERNVDILIASRDTQFREMAGLRSVWNRFGVWCMRKRTGFTITDSQSGFRWYSARLLKGVSLEASGYHLEMEILMKAWRGGFAIDSLPVAARVADGRATSHFRPVRDTWNICMTFLRHMLEHHHHHH,soluble
6,MGYDVTRFQGDVDEDLICPICSGVLEEPVQAPHCEHAFCNACITQWFSQQQTCPVDRSVVTVAHLRPVPRIMRNMLSKLQIACDNAVFGCSAVVRLDNLMSHLSDCEHNPKRPVTCEQGCGLEMPKDELPNHNCIKHLRSVVQQQQSRIAELEKTSAEHKHQLAEQKRDIQLLKAYMRAIRSVNPNLQNLEETIEYNEILEWVNSLQPARVTRWGGMISTPDAVLQAVIKRSLVESGCPASIVNELIENAHERSWPQGLATLETRQMNRRYYENYVAERIPGKQAVVVMACENQHMGDDMVQEPGLVMIFAHGVEEI,soluble
7,MHAFTTERLLIRPLISEDEHFYCYQYTDKKMMRIVGEPLTQEQASAAFHRALKANNLEQDTVRTWAIVDKAANDIIGTQALSWLATRQTTKPSSSPIEQVEIGIMLATRANGKLLPEEAVSAIMEYGFKQLNIGRINAFYANKNRATQRILKKIGYIFEPCLQDNTTDNGYQYFEQHQWSGVIITQLFPEEIEIKEPTVND,not soluble
8,MHANGIFFVPKYSSKYGKKQQTEKQWPVPEMGWQPGAVNSNFALQSSALILIGGFIRIIKVDSNATSCIHFGGIDAKPLLLQMNAYSLPAAEIRTKNGRIVARVF,not soluble
9,MHDEQFCVGYNFLEAEDTFREDGLEPVTLAIHGTPEVLQLLGNKPLNWDGPISFGLFVDFHSQKALNYISMLHKCDAAFKRQMTVHFAFRISPSQSECPMIQVLGYQDCATFLQKSKQLLEEIEDSFQIYPINLMRNIARRGAKSDLHLIIDTDMMMSTNFAKMVKPIANRMIDGKNKQVLVVRRFETNENELPMSFGDLEEGIENHKTFQFHHKFFFVGHQIPNLMEWFERSHASNDVVAWEIPYTGNDWEVQIILHRNDPYNVEYFPSRVKDMQSLIYKLCRANYTFNLLSHVFNVHKGIKEDDTMYSKVVTAHTKRQGRLRTLSRYVTEIDRKYPDTMKRCGQFLL,not soluble
